Test results reported in article PMC11570498.

Tests used:
[1] = molecular target: Chlorella sorokiniana Rubisco holoenzyme (CsRubisco) (Chlorella sorokiniana UTEX1230 (endogenous in Chlorella cells)) (UniProt W8SUA8); experiment: SPR; Rubisco immobilised as bait, fragments as analyte (prey); Biacore T100/T200, 25 °C; analyte injected at 15 μl/min for 30 s, 360 s dissociation; fit of y = Bmax·x/(KD + x); apparent KD; triplicate
[2] = molecular target: Chlamydomonas reinhardtii Rubisco (CrRubisco) (Chlamydomonas reinhardtii (endogenous in Chlamydomonas cells)) (UniProt P00877); experiment: as above
Sequence of Chlamydomonas reinhardtii Rubisco (CrRubisco) (Chlamydomonas reinhardtii (endogenous in Chlamydomonas cells)) (P08475 46-185 limits assumed, chain 2 of 2, other chains not shown): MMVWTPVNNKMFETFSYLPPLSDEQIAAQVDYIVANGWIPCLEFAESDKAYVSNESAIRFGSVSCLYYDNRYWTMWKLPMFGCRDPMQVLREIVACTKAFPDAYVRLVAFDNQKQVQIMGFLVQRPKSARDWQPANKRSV

[3] = molecular target: Chlorella sorokiniana Rubisco holoenzyme (CsRubisco) (Chlorella sorokiniana UTEX1230 (endogenous in Chlorella cells)) (UniProt W8SUA8); experiment: native gel or EMSA; native PAGE gel-shift assay; Rubisco and fragments mixed for 30 min at room temperature; 50 mM Tris-HCl pH 8.0, 50 mM NaCl (Fig. 3a); 4-20% gels, 4 h at 100 V, 4 °C
[4] = molecular target: Chlorella sorokiniana Rubisco holoenzyme (CsRubisco) (Chlorella sorokiniana UTEX1230 (endogenous in Chlorella cells)) (UniProt W8SUA8); experiment: cryo-EM structure; 0.5 μM CsRubisco and 16 μM α3–α4 in 200 mM sorbitol, 50 mM HEPES, 50 mM KOAc, 2 mM Mg(OAc)2, 1 mM CaCl2, pH 6.8; D4 map of the holoenzyme and C1 map after symmetry expansion

Substance | Kd [1] | Kd [2] | K0.5 (half-occupancy) [3] | percent of the CsRbcL sites occupied [4]
CsLinker α3 fragment (residues 142–207) (domain or fragment) | 103 µM | 108 µM |  | 
CsLinker α3–α4 fragment (residues 142–272) (domain or fragment) | 1.21 µM | 1.3 µM | 1.2 µM | 23%
